# Changes are numbered by the printed parent chain.
# T1: dCas14-VPR (dUn1Cas12f1-VPR) (UniProt A0A482D308 SEQ:1-529)
# T1 chain: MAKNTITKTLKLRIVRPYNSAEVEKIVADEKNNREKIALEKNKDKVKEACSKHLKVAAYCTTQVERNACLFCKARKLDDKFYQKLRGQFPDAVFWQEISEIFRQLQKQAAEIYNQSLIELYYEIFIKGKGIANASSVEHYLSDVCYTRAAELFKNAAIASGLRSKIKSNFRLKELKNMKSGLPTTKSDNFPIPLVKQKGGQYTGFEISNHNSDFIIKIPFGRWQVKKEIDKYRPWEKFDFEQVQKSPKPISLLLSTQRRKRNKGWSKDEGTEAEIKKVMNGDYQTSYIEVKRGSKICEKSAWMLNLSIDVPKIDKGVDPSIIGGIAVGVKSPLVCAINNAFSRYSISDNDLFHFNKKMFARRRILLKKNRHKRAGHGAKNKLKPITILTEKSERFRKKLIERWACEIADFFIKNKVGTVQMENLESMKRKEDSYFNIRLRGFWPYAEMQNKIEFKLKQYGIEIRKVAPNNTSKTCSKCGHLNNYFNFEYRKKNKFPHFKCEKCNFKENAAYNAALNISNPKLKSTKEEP
# T2: dCasMINI-V3-VPR (D143R/T147R/K330R) (UniProt A0A482D308 SEQ:1-529)
# T2 chain: T1 chain with D143R, T147R, K330R
# T3: dCasMINI-V2-VPR (D143R/T147R) (UniProt A0A482D308 SEQ:1-529)
# T3 chain: T1 chain with D143R, T147R
# T4: dCasMINI-V1-VPR (D143R) (UniProt A0A482D308 SEQ:1-529)
# T4 chain: T1 chain with D143R
# T5: dCasMINI-V4-VPR (D143R/T147R/K330R/E528R) (UniProt A0A482D308 SEQ:1-529, D326A,D510A)
# T5 sequence: T1 chain with D143R, T147R, K330R, E528R
# B1: sgRNA Design 2 (stem-loop truncation) targeting TRE3G ; TRE3G promoter target (ssRNA ; dsDNA)
# RNA: GGGCUUCACUGAUAAAGUGGAGAACCGCUUCACCAAAAGCUGUCCCUUAGGGGAUUAGAACUUGAGUGAAGGUGGGCUGCUUGCAUCAGCCUAAUGUCGAGAAGUGCUUUCUUCGGAAAGUAACCCUCGAAACAAAUUCAUUUGAAUGAAGGAAUGCAACCUCCCUAUCAGUGAUAGAGAACG
# DNA 1: TTTACTCCCTATCAGTGATAGAGAACGTAT
# DNA 2: ATACGTTCTCTATCACTGATAGGGAGTAAA
# modifications: [-]
# Columns and labels:
# [1] = target: T1, dCas14-VPR (dUn1Cas12f1-VPR); assay: cell_activity; GFP activation, 3% GFP+ cells; PAM TTTR; details: chain copies: 2
# Method: (§1) Using a doxycycline (Dox)-inducible TRE3G-EGFP HEK293T reporter cell line and a sgRNA targeting the promoter, activation efficiency of dCas14-VPR was measured. Wild-type HEK293T cells (ATCC) and the HEK293T TRE3G-GFP reporter line stably encoding EGFP under a Tet-On promoter (pTRE3G) (Y. Gao et al., Genome Res. 22, (2012): 1760-74) were cultured in DMEM with high glucose, sodium pyruvate and GlutaMAX (Thermo Fisher), additionally supplemented with 10% FBS (Sigma). Cells were grown at 37° C. and 5% CO₂ and maintained at confluency below 80%. All transfections were performed with TransIT-LT1 transfection reagent (Mirus) at a ratio of 3 µL reagent per µg of plasmid. Cells were plated 1 day before at 1×10⁵ cells/mL. For this and other GFP activation assays described in these Examples, 500 ng of dCas constructs and 250 ng sgRNA or crRNA plasmids were transfected to HEK293T TRE3G-GFP cells in 24-well plates. Transfected cells were analyzed 2 days post-transfection for GFP activation. Here, no reporter activation was observed (FIG. 3), implying the natural Cas14 system fails to function in the human genome context.
# [2] = target: T2, dCasMINI-V3-VPR (D143R/T147R/K330R); assay: cell_activity; GFP activation; PAM TTTR
# Method: as §1
# [3] = target: T3, dCasMINI-V2-VPR (D143R/T147R); assay: cell_activity; GFP activation; PAM TTTR; details: chain copies: 2
# Method: as §1
# dCasMINI-V1-VPR (D143R) = target: T4, dCasMINI-V1-VPR (D143R); assay: cell_activity; GFP activation; PAM TTTR; details: chain copies: 2
# Method: as §1
# [4] = target: T5, dCasMINI-V4-VPR …; assay: cell_activity; GFP activation; 1.15-fold over V3 in screen; PAM TTTR; details: tags: N-terminal SV40 NLS, C-terminal c-Myc NLS, mCherry
binder,measurement,setting,value
B1,activity,[1],3.6 fold over non-targeting
same,activity,[2],1.26 fold over D143R/T147R
same,activity,[3],1.55 fold over best single variant
same,activity,dCasMINI-V1-VPR (D143R),> 24 fold over dCas14-VPR
same,activity,[4],244 fold activation
